From US20100115665A1 (published 2010)

Target: T1, GroEL homologue from secondary endosymbiotic bacteria of the whitefly Bemisia tabaci (endosymbiotic bacteria of Bemisia tabaci, UniProt C4K477 1-552)
T1 construct: Chaperonin expressed in planta and assayed in plant sap; also called whitefly GroEL; B. tabaci GroEL
Test: capture of sap of infected GroEL-transgenic N. benthamiana (7 dpi) in anti-GroEL coated tubes; RT-PCR and Western blot with virus-specific antibodies
Protocol: Transgenic and non-transgenic N. benthamiana plants were mechanically inoculated with GVA and with TMV. Infection was assessed by RT-PCR and by Western blot analyses at 5-7 dpi (FIGS. 12A and 13A). The possible binding of GVA and TMV particles to GroEL in transgenic N. benthamiana plants was assessed as described above. Sap of infected transgenic plants at 7 dpi was incubated in PCR tubes coated with anti-GroEL antibody. Binding of GroEL-virus complexes to the coated tubes was assayed by RT-PCR and with virus-specific antibodies.

B1: Grapevine virus A (GVA) (other)
chain: MAHYAKRVEIRAIIEELVLAKAQPTDDASESGYDRNMYLNTLFGYIALVGTSKKAIHYGEVDIVGPKASKKTGIDPRGKMVVSELVGRMRTLSVAVSEGPVKGATLRQMCEPFAQNAYDFLVVMAEMGTYSQLATKMTRSGFKEPQVMFDFASGLDLKALTLQEATVIQAMHSRLFRTEGAKGVFNAQSSIGEQAVEI
notes: The partner in the assay is the whole filamentous virus particle in plant sap
binding result: no binding
